Several values for one entry are separate records, joined by “and”; a condition that tells them apart may be missing. Equal entries are not always repeated.
Assays:
[1] = target: human CTLA4 expressed on Jurkat T cells (CTLA4 effector cells) (human) (UniProt P16410); assay: cell-based or functional assay
[2] = target: FcγRII (CD32) expressed on Raji cells; assay: cell-based or functional assay

Chain of L3D10 (BioLegend anti-CTLA4 antibody) (heavy): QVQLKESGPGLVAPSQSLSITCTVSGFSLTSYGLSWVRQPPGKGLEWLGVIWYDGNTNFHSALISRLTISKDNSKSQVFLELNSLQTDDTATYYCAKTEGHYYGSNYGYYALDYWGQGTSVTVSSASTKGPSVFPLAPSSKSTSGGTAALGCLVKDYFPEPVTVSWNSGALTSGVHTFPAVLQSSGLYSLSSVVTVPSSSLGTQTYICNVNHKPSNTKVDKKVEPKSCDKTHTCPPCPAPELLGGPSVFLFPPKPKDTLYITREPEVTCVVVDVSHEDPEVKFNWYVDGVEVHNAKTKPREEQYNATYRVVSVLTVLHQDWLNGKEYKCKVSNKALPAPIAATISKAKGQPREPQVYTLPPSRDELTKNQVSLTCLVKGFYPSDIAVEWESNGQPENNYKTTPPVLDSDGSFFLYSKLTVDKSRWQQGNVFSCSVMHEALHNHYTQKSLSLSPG
Chain of L3D10 (BioLegend anti-CTLA4 antibody) (light): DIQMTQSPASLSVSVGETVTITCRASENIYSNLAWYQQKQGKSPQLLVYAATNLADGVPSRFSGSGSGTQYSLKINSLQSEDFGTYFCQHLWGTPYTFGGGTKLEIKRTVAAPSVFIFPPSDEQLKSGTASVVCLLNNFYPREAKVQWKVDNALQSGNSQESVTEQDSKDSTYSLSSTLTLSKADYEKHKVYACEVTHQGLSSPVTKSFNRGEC
Chain of human CTLA4 expressed on Jurkat T cells (CTLA4 effector cells) (human) (P16410 36-223): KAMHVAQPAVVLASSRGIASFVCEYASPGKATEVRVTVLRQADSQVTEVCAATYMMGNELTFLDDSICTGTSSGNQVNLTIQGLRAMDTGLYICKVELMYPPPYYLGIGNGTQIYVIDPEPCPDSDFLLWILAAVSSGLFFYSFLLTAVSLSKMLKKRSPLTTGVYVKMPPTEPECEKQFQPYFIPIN

| RLU ratio, Promega CTLA4 Blockade Bioassay (luciferase readout) [1] | half max activity concentration, CTLA4 Blockade Bioassay (luciferase or IL-2 readout) [1] [nM] | RLU ratio of the CTLA4 blockade assay with anti-CD32 antibody at 10 µg per ml [2] [%] | activity in the CTLA4 blockade assay with anti-CD32 antibody [2] [%] | Substance |
| --- | --- | --- | --- | --- |
| 10 and 15 | 50 | 50 |  | L3D10 (BioLegend anti-CTLA4 antibody) |
|  |  | 50 | 50 | ipilimumab (Selleckchem, Cat. No. A2001) (antibody) |

Source: US20250282870A1
